Results as given in US12186436B2, “Triblock copolymer stabilizers for the formation of nanoparticles encapsulating soluble biologics, therapeutics, and imaging agents” (The Trustees of Princeton University, priority 2018, dated 2025).

Assay: Release of biologic from nanoparticles in release buffer (fluorescence of soluble biologic after 100 kDa ultrafiltration)
Type: physicochemical
Details: nanoparticles made by Process 2
Protocol: Release can be studied by diluting the final concentrated nanoparticle solution after ultrafiltration into the desired release buffer. The solutions can then be incubated under the required conditions of temperature and agitation. A suitable method to separate nanoparticles from released biologic can be employed at periodic time points to evaluate the released fraction. In one embodiment, ultrafiltration with a 100 kDa molecular weight cut-off is used to separate released biologic from the nanoparticles containing biologic that is still encapsulated.
Residual acetone and unencapsulated biologic were removed by rinsing on a 100 kDa Amicon ultrafilter that had been pre-blocked to prevent non-specific adsorption. The nanoparticle solution was concentrated to around 15-20 mg/ml and rinsed with deionized water twice using a volume that was about 3-4 times the concentrated volume. The flow-through streams were analyzed by fluorescence to determine encapsulation efficiency. The nanoparticles were resuspended in the indicated release buffer and placed on a shaker table at 37° C. for release. […] Particle size was characterized by Dynamic Light Scattering (DLS) using a Zetasizer Nano ZS.
Temperature was controlled in the centrifugation process to either 5° C. or 20° C. […] The flow-through streams were analyzed by fluorescence to determine encapsulation efficiency. […]

**Q.** For lysozyme, which “time for lysozyme release to reach 90%” value is on record?
**A.** 20 to 30 h
